Measurements: patent publication US20040170622A1, “Methods and compositions for modulating XBP-1 activity” (President and Fellows of Harvard College, priority 2002, published 2004)

B1: dn-XBP: dominant negative XBP-1 containing the N-terminal 188 aa, lacking transactivation domain, retaining leucine zipper (protein)
chain: MVVVAAAPSAATAAPKVLLLSGQPASGGRALPLMVPGPRAAGSEASGTPQARKRQRLTHLSPEEKALRRKLKNRVAAQTARDRKKARMSELEQQVVDLEEENHKLQLENQLLREKTHGLVVENQELRTRLGMDTLDPDEVPEVEAKGSGVRLVAGSAESAAGAGPVVTSPEHLPMDSDTVASSDSESD
B2: XBP-1s: vector encoding only the spliced form of murine XBP-1, a protein of 371 aa (protein)
chain: MVVVAAAPSAATAAPKVLLLSGQPASGGRALPLMVPGPRAAGSEASGTPQARKRQRLTHLSPEEKALRRKLKNRVAAQTARDRKKARMSELEQQVVDLEEENHKLQLENQLLREKTHGLVVENQELRTRLGMDTLDPDEVPEVEAKGSGVRLVAGSAESAAGAGPVVTSPEHLPMDSDTVASSDSESDILLGILDKLDPVMFFKCPSPESASLEELPEVYPEGPSSLPASLSLSVGTSSAKLEAINELIRFDHVYTKPLVLEIPSETESQTNVVVKIEEAPLSSSEEDHPEFIVSVKKEPLEDDFIPELGISNLLSSSHCLRPPSCLLDAHSDCGYEGSPSPFSDMSSPLGTDHSWEDTFANELFPQLISV

Legend:
ERdj4 promoter = test: ERdj4GL3 promoter luciferase reporter in MEF cells; type: cell-based; conditions: wt MEF, Tm 1 μg/ml 16 hours or cotransfected XBP-1s
Protocol: (A) Wild type and XBP-1^−/− MEF cells were treated with 10 μg/ml Tm for the indicated time periods. Total RNAs were isolated and subjected to Northern blot analysis. The same blot was hybridized sequentially with BiP, CHOP, ERdj4, p58^ipk, ATF6α and Gla probes. The p58^ipk probe is probe A, from the 5′ end of the gene. Ethidium bromide staining of the gel before blotting is shown at the bottom for loading control. (B) All isoforms of p58^ipk are XBP-1 dependent. Here, Northern blot analysis was performed with probe B which recognizes sequences at the 3′ end of the gene. (C) XBP-1-dependent genes are also IRE1α-dependent. Northern blot analysis of RNA prepared from IRE 1α^−/− MEFs treated with Tm for varying time periods and assessed for expression of ERdj4 and p58^ipk. (D) The ERdj4GL3 reporter was transfected with or without XBP-1s plasmid into wild type and XBP-1^−/− MEF cells. Cells were treated with Tm at 1 μg/ml for 16 hours before harvesting as indicated. Luciferase activity was normalized to the Renilla activity. (E) Induction of BiP, ERdj4 and p58^ipk in primary B cells by LPS. B220+ primary B cells were isolated from spleens of wildtype or XBP-1^−/− RAG2^−/− lymphoid chimeras. Cells were untreated or stimulated for three days with 20 μg/ml LPS. Expression of BiP, ERdj4 and p58^ipk was determined by Northern blot analysis […]

XBP-1s = test: UPRE-luciferase reporter in NIH3T3 cells; type: cell-based
Protocol: (A) Ubiquitination of XBP-1 in HeLa cells were cotransfected with XBP-1u and His-tagged ubiquitin expression plasmids. (B) Degradation rates of XBP-1u and XBP-1s proteins were determined by pulse labeling J558 cells with ^35S Met/Cys for 1 hr and chasing for the indicated times. (C) Effect of XBP-1u on XBP-1s dependent UPRE activation in PI-treated NIH3T3 cells with 8-fold excess of XBP-1u plasmids. Transfected cells were treated with MG-132 for 16 hrs before harvesting for luciferase assays. Values represent fold induction of activity compared to the reporter alone after normalizing to Renilla. (D) Generation and expression of lysine to arginine XBP-1u mutants. Two or three lysine residues in the C-terminus of XBP-1u were replaced by arginine to generate XBP-1uKK (235, 252) and XBP-1uKKK(146, 235, 252) by site-directed mutagenesis. dn-XBP contains the N-terminal 188 aa of XBP-1u. Western blot analysis was performed with NIH3T3 extracts transfected with the indicated plasmids. E) Inhibition of XBP-1 dependent activation of the UPRE reporter in NIH 3T3 cells by XBP-1u lysine to arginine mutants.
Two or three lysine residues in the C-terminus of XBP-1u were replaced by arginines to generate XBP-1uKK (K235R, K252R) and XBP-1uKKK(K146R, K235R, K252R) by site-directed mutagenesis (Iwakoshi et al.2003 Nature Immunology 4: 321-329). dn-XBP contains the N-terminal 188 aa of XBP-1u. NTH3T3 cells were transfected by using the Lipofectamine2000 reagent as recommended by the manufacturer (Invitrogen, Carlsbad, Calif.) with indicated amount of UPRE (UPR element) reporter (Wang et al. 2000 J Biol Chem 275: 27013-27020) and various effector plasmids. Cells were treated for 16 hours before harvest in certain experiments. Cells were lysed in passive lysis buffer for dual luciferase assays according to the manufacturer's protocol (Promega, Madison, Wis.).

| Molecule | ERdj4 promoter luciferase reporter induction (ERdj4 promoter) | effect on transactivation of UPRE reporter by XBP-1s (XBP-1s; in the absence of PIs) | UPRE reporter activity (XBP-1s; in the absence of treatment) |
| --- | --- | --- | --- |
| tunicamycin [Tm] | induced by Tm as well as by cotransfected XBP-1s |  |  |
| B1 |  | inhibits XBP-1s -induced transactivation very efficiently |  |
| B2 | induced by Tm as well as by cotransfected XBP-1s |  | greatly increased reporter activity |
